The experiment has as its target HLA-B*08:01 (human). Description: UV-induced peptide exchange, HLA class I ELISA; Pos peptide = 100%. Particulars: remark: other sources report otherwise.
With LLERNSFEV (here or on the partner: biotinylated heavy chain) [P73 9-mer …], the exchange rate with Pos peptide is 2.6%.

Molecule RVGNCKHLK (here or on the partner: biotinylated heavy chain) [P82 9-mer …] showed an exchange rate with Pos peptide of 1.4%. Under IVWWCPMSR (here or on the partner: biotinylated heavy chain) [P98 9-mer …] stands 2.4%; under FLFLLLPLS (here or on the partner: biotinylated heavy chain) [P87 9-mer …], 3.1%. As for CYLGRQKRF (here or on the partner: biotinylated heavy chain) [P61 9-mer …], the exchange rate with Pos peptide came out at 3.6%. The figure for CPMSRLRLA (here or on the partner: biotinylated heavy chain) [P46 9-mer …] is 14.5%; for IPVLTRWPL (here or on the partner: biotinylated heavy chain) [P19 9-mer …] it is 14.5%; for HVPKILSGK (here or on the partner: biotinylated heavy chain) [P58 9-mer …] it is 5.3%.

For the molecule QLIAMDSAI (here or on the partner: biotinylated heavy chain) [P22 9-mer …], the exchange rate with Pos peptide came out at 3.9%. Under LMAQRLLLR (here or on the partner: biotinylated heavy chain) [P97 9-mer …] stands 2.7%; under RAKCKFSIL (here or on the partner: biotinylated heavy chain) [P56 9-mer …], 38%; under YLRRQKRLK (here or on the partner: biotinylated heavy chain) [P60 9-mer …], 10.2%.

These data come from patent US20230035403A1, “Method For Determining Responsiveness To Prostate Cancer Treatment” (Janssen Biotech, Inc., priority 2020, published 2023).
